Source: US20230094463A1, “ANTIBODIES THAT DISRUPT THE INTERACTION OF GAL3 AND INSULIN RECEPTOR OR INTEGRINS AND METHODS OF USE THEREOF” (TrueBinding, Inc., priority 2019, published 2023)
Positions count from the first letter of the chain named. Numbers in names are those of the source. One block for each molecule: values may come before it.

Assays:
[1] = system: Gal3 peptides (SEQ ID NOs: 3-26); assay: Gal3 peptide library binding ELISA (epitope mapping); design: species or system human
Procedure: (§1) To identify the epitopes to which Gal3 antibodies with and without Gal3-INSR blocking activity bound, a library of 24 amino acid peptides representing portions of Gal3, depicted in FIG. 27, was produced and the ability of each peptide to bind Gal3 antibodies was evaluated by ELISA. At least 2 μg/ml of hGal3 peptide in 50 μl of PBS or 0.1 μg/ml of full-length human Gal3 protein (GenScript) and human Galectin-3 protein (Acro Biosystems, GA3-H5129) were diluted in PBS (Corning, 21-030-CM) to concentrations of at least 2 μg/ml or 0.1 μg/ml, respectively, and added to the wells of a 96-well ELISA plate (Thermo Fisher, 44-2404-21). After incubating the plate at 4° C. overnight, the plate was washed three times with PBST (PBS with 0.05% Tween 20 [VWR, 0777]). The plate was then blocked for an hour with 2% BSA (EMD Millipore, 126609) in PBST at room temperature with gentle rocking. Thereafter, the 2% BSA in PBST was discarded and human Galectin-3 hybridoma supernatants or antibodies were diluted in 2% BSA in PBST to concentrations of at least 0.1 μg/ml and added to the wells. The plate was incubated for an hour at room temperature with gentle rocking and then washed three times with PBST. Afterwards, Goat Anti-Mouse IgG-HRP (Jackson ImmunoResearch, 115-036-1461) or Goat Anti-Rat IgG HRP (Abcam, ab205720) diluted in 2% BSA in PBST (1:4000) were added to the wells. The plate was incubated for 30 minutes to 1 hour at room temperature with gentle rocking and then washed three times with PBST. TMB substrate (Thermo Scientific, 34029) was then added to each well. The reaction was stopped with 1M HCl (JT Baker, 5620-02) and read using a plate reader (Molecular Devices) at absorbance of 450 nm.
(§2) Human Gal3 peptides (LifeTein, custom order) and human Gal3 proteins (R&D Systems, 8259-GA; TrueBinding, QCB200349) were diluted in PBS (Corning, 21-030-CM) to concentrations of at least 100 μg/mL (peptides) or 1 μg/mL (proteins), and added to the wells of several 96-well ELISA plates (Thermo Fisher, 44-2404-21). After incubating the plates at 4° C. overnight, the plates were washed three times with PBST (PBS with 0.05% Tween 20 [VWR, 0777]). The plates were then blocked for an hour with 2% BSA (EMD Millipore, 126609) in PBST at room temperature with gentle rocking. Thereafter, the 2% BSA in PBST was discarded and Gal3-binding antibodies (reformatted hIgG4 [S228P]) were diluted in 2% BSA in PBST to concentrations of 5 μg/mL and added to the wells. The plates were incubated for an hour at room temperature with gentle rocking and then washed three times with PBST. Afterwards, Peroxidase AffiniPure F(ab′)2 Fragment Goat Anti-Human IgG (H+L) polyclonal antibody (Jackson ImmunoResearch, 109-036-003), was diluted in 2% BSA in PBST (1:4000) and added to the wells. The plates were incubated for 1 hour at room temperature with gentle rocking and then washed three times with PBST. TMB substrate (Thermo Scientific, 34029) was then added to each well. The reaction was stopped with 1M HCl (JT Baker, 5620-02) and read using a plate reader (Molecular Devices) at absorbance of 450 nm.

[2] = molecular target: T1, Gal3 peptides (SEQ ID NOs: 3-26) (Homo sapiens, UniProt P17931); assay: as above; conditions: for binding to Gal3 Peptide 1: Peptide 1 (SEQ ID NO: 3), amino acids 1-20 of Gal3; for binding to Gal3 Peptide 7: Peptide 7 (SEQ ID NO: 9), amino acids 61-80 of Gal3; for binding to Gal3 Peptide 6: Peptide 6 (SEQ ID NO: 8), amino acids 51-70 of Gal3
T1 construct: a library of 24 amino acid peptides representing portions of Gal3; purchased LifeTein custom order
Procedure: as §1, §2

[3] = molecular target: T2, human Gal3 (Homo sapiens, UniProt P17931); assay: Antibody binning assays (competition for binding to Gal3); conditions: binning per Examples 3 and 18
T2 construct: His; purchased AcroBio GA3-H5129
T2 sequence (P17931 whole entry): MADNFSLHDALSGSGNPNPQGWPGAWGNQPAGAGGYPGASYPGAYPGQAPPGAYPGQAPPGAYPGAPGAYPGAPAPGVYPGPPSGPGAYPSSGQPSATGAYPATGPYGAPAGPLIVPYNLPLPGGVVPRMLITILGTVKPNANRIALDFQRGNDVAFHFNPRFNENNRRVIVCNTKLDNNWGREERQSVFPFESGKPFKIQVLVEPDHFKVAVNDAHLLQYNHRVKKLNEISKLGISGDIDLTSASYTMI
Procedure: To determine whether Gal3-binding antibodies with Gal3-INSR blocking activity bind to the same or overlapping regions of the Gal3 molecule, antibody binning assays were performed to assess the ability of antibodies to simultaneously bind Gal3. Amine-reactive probes were loaded onto a Gator biosensor (Probe Life, Palo Alto, Calif.), equilibrated in dH20 for 60 seconds, dipped into 100 μl EDC 0.2M/NHS 0.05M activation buffer for 30 seconds, then dipped into a solution of […] human Gal3-His in 10 mM NaOAc buffer, pH 5 until binding was saturated, and quenched in 1 M ethanolamine pH 8.5 for 300 seconds. Following Gal3-His loading, tips were dipped in 20 μg/mL saturating antibody, then successively dipped into 5 μg/mL competing antibody.
The epitope binning assay was done in a sandwich format on the high-throughput SPR-based Carterra LSA unit (CarterraBio, Salt Lake City, Utah). First, the purified antibodies were diluted to 10 μg/ml concentration in 10 mM NaOAc (pH 5.0) and then were covalently coupled via amine group to HC200M chip activated by EDC and S-NHS to immobilize antibodies to different positions of a 384-spot array. One hundred thirty-eight binning cycles were run on the array of immobilized antibodies. In each cycle, first, human Gal3 (AcroBio GA3-H5129) was injected over the entire array to bind to different antibodies (primary antibody), followed by one antibody (secondary antibody) selected among the panel of 150 anti-GAL3 antibodies tested. At the end of each cycle, the array was regenerated by 10 mM Glycine (pH 2.0) to remove bound antigen and secondary antibody from the array. The data analysis was done using the Epitope software by CarterraBio.

binding to Gal3 Peptide 8 ([1]; Peptide 8 (SEQ ID NO: 10)): bind | binding to Gal3 Peptide 1 [2]: bind and bound | binding to Gal3 Peptide 7 [2]: bind and bound
B1: F846TC.14A2: anti-Gal3 antibody (antibody, V domains shown)
VH: QIQLVQSGPELKKPGETVKISCKASGYTFTNYGMNWVKQAPGKGLKWMGWINTYTGEPTYAGDLKGRFAFSLETSASTAYLQINNLKNEDTATYFCVRYTMDYWGQGTSVTVSS
VL: QAVVTQESALTTSPGETVTLTCRSSTGAVTTSNYANWVQEKPDHLFTGLIGGINNRVPGVPARFSGSLIGDKAALTITGAQTEDEAIYFCALWYSNHWVFGGGTKLTVL

binding to Gal3 Peptide 17 ([1]; Peptide 17 (SEQ ID NO: 19)): bind | binding to Gal3 Peptide 6 [2]: bind and bound
B2: F846C.1F5: anti-Gal3 antibody (antibody, V domains shown)
VH: QIQLVQSGPELKKPGETVKISCKASGYTFTNYGMNWVKQAPGKGLKWMGWINTYTGEPSYADDFKGRFAFSLETSASTAYLQINNLKNEDMATYFCARWGGYDGDYYAMDYWGQGTSVTVSS
VL: NIMMTQSPSSLAVSAGEKVTMSCKSSQSVLYSSNQKNYLAWYQQKPGQSPKLLIYWASTRESGVPDRFTGSGSGTDFTLTISSVQPEDLAVYYCHQYLSSLTFGAGTKLELK

binding to Gal3 Peptide 2 ([2]; Peptide 2 (SEQ ID NO: 4)): bind | binding to Gal3 Peptide 3 ([2]; Peptide 3 (SEQ ID NO: 5)): bind | binding to Gal3 Peptide 4 ([2]; Peptide 4 (SEQ ID NO: 6), amino acids 31-50 of Gal3): bind | binding to Gal3 Peptide 7 [2]: bind and bound | epitope bin (competitive binding to Gal3) [3]: bin 8
B3: 15F10.2D6: anti-Gal3 monoclonal antibody (antibody, V domains shown)
VH: EVQLVESGGGLVKPGGSLKLSCAASGFAFSSYAMSWVRQTPEKRLEWVATISDGGVYTYYTDHVKGRFTISRDNAEDNLYLQMSHLKSEDTAMYYCVRDGGYWGQGTTLTVSS
VL: DVLMTQTPLSLPVSLGDQASISCRSSQSIVHNNGNTYLEWYLQKPGQSPKLLIYKVSNRFSGVPDRFSGSGSGTDFTLKISRVEAEDLGVYYCFQGSHVPLTFGGGTKLELK

binding to Gal3 Peptide 1 [2]: bound | binding to Gal3 Peptide 6 [2]: bind and bound | binding to Gal3 Peptide 7 [2]: bound | epitope bin (competitive binding to Gal3) [3]: bin 3
B4: 2D10.2B2: anti-Gal3 monoclonal antibody (antibody, V domains shown)
VH: QVQLQQSGPELVKPGASVKISCKASGYTFTDYYINWVKQRPGQGLEWIGWIYPGSNDTKYNEKFKGKATLTVDTSSSTAYMQLGSLTSEDSAVYFCANYFGCSGWFFDVWGTGTTVTVSS
VL: DIVMTQAAFSNPVTLGTSASISCRSSKSLLHSDGITYLYWYLQRPGQSPQLLIYRMSNLASGVPDRFSGSGSGTDFTLRISRVEAEDVGVYYCAQMIEFPLTFGAGTILELK

binding to Gal3 Peptide 6 [2]: bind and bound | epitope bin (competitive binding to Gal3) [3]: bin 3
B5: 4A11.2B5: anti-Gal3 monoclonal antibody (antibody, V domains shown)
VH: QVQLQQSGPELVKPGASVKISCKASGYSFTNYYIHWVKQRPGQGLEWIGWIYPGSGNTNYNEKFKGKATLTADTSSSTTNMQLSSLTSEDSAVYYCSTAPGGFDVWGSGTTVTVSS
VL: B4 VL with I97L, I108K
